Experimental data: PMC9482650, “Quantitative fragmentomics allow affinity mapping of interactomes” (Nature Communications, 2022)

T1: APBA2_1, Q99767
T1 sequence (Q99767 563-664, limits assumed, looked up): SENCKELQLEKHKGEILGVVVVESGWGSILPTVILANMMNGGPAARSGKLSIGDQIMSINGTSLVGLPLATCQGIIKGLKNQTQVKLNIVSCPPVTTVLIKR

T2: DFNB31_1, Q9P202
T2 sequence (Q9P202 135-233, limits assumed, looked up): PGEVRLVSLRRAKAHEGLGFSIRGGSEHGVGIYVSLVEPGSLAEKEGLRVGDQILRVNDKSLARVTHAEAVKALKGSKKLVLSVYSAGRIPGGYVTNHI

T3: DVL3, Q92997
T3 sequence (Q92997 244-331, limits assumed, looked up): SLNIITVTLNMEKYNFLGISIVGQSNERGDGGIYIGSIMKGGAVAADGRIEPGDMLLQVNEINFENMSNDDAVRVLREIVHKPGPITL

T4: GRIP1_2, Q9Y3R0
T4 sequence (Q9Y3R0 145-248, limits assumed, looked up): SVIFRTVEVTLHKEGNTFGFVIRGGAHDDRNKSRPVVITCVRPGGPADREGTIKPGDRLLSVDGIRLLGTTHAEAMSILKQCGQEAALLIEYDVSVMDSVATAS

T5: GRIP1_3, Q9Y3R0
T5 sequence (Q9Y3R0 247-346, limits assumed, looked up): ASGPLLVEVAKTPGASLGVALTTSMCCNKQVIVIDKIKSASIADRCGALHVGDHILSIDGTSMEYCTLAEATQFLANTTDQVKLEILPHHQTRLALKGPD

T6: LRRC7, Q96NW7
T6 sequence (Q96NW7 1440-1537, limits assumed, looked up): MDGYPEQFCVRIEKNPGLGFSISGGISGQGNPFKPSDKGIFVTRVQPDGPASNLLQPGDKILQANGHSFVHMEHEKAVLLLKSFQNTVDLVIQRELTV

T7: MPDZ_12, O75970
T7 sequence (O75970 1857-1958, limits assumed, looked up): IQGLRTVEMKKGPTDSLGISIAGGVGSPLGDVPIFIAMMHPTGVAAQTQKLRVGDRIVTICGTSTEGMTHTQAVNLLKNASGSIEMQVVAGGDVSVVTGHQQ

T8: PDZRN3_1, Q9UPQ7
T8 sequence (Q9UPQ7 244-349, limits assumed, looked up): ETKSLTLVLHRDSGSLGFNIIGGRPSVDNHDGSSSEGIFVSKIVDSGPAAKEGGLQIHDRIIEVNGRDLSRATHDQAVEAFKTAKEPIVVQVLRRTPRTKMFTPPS

T9: RADIL, Q96JH8
T9 sequence (Q96JH8 971-1071, limits assumed, looked up): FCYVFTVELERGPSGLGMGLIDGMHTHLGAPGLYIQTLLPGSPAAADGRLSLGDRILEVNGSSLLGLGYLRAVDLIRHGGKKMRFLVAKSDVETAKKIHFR

T10: RHPN1, Q8TCX5
T10 sequence (Q8TCX5 508-602, limits assumed, looked up): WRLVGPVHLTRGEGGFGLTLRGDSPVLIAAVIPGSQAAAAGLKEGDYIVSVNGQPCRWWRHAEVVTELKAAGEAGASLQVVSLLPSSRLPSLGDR

T11: SNTB1, Q13884
T11 sequence (Q13884 107-205, limits assumed, looked up): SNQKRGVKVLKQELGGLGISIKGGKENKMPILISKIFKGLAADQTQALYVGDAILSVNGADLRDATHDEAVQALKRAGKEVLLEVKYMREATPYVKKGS

T12: SNTG2, Q9NY99
T12 sequence (Q9NY99 68-166, limits assumed, looked up): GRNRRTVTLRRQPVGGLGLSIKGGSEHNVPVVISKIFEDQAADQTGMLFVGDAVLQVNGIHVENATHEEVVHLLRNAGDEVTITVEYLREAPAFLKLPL


Key:
Test in all cases: holdup assay
Parameters in all cases: key: below the threshold = too weak to quantify, mostly under pKd 3.1 to 4
Settings in all cases: plain residues with an end cap or a label only (N-terminal biotin on a linker: ado-ado)
AHNAK1, Q09666 = target: AHNAK1, Q09666
APBA2_1, Q99767 = target: T1, APBA2_1, Q99767
ARHGEF12, Q9NZN5-2 = target: ARHGEF12, Q9NZN5-2
DFNB31_1, Q9P202 = target: T2, DFNB31_1, Q9P202
DLG1_2, Q12959 = target: DLG1_2, Q12959
DLG2_3, Q15700 = target: DLG2_3, Q15700
DLG4_3, P78352 = target: DLG4_3, P78352
DVL3, Q92997 = target: T3, DVL3, Q92997
GRIP1_2, Q9Y3R0 = target: T4, GRIP1_2, Q9Y3R0
GRIP1_3, Q9Y3R0 = target: T5, GRIP1_3, Q9Y3R0
Inadl_10, Q8NI35 = target: Inadl_10, Q8NI35
Inadl_4, Q8NI35 = target: Inadl_4, Q8NI35
LRRC7, Q96NW7 = target: T6, LRRC7, Q96NW7
MAGI2_3, Q86UL8 = target: MAGI2_3, Q86UL8
MAGI2_5, Q86UL8 = target: MAGI2_5, Q86UL8
MPDZ_12, O75970 = target: T7, MPDZ_12, O75970
NHERF4_2, Q86UT5 = target: NHERF4_2, Q86UT5
PARD3_3, Q8TEW0 = target: PARD3_3, Q8TEW0
PDZRN3_1, Q9UPQ7 = target: T8, PDZRN3_1, Q9UPQ7
RADIL, Q96JH8 = target: T9, RADIL, Q96JH8
RHPN1, Q8TCX5 = target: T10, RHPN1, Q8TCX5
SCRIB_1, Q14160 = target: SCRIB_1, Q14160
SCRIB_3, Q14160 = target: SCRIB_3, Q14160
SNTB1, Q13884 = target: T11, SNTB1, Q13884
SNTG2, Q9NY99 = target: T12, SNTG2, Q9NY99

Sequence of MAGI2_3, Q86UL8 (Q86UL8 600-682): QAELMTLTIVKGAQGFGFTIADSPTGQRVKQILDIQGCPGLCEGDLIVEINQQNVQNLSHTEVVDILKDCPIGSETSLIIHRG
Sequence of SCRIB_1, Q14160 (Q14160 718-814): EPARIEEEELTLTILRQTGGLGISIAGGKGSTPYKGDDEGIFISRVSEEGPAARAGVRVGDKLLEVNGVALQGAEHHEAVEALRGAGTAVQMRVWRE
Sequence of Inadl_4, Q8NI35 (Q8NI35 547-651): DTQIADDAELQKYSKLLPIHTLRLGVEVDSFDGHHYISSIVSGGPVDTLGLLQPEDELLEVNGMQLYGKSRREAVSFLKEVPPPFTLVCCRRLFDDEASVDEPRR
Sequence of AHNAK1, Q09666 (Q09666 4-100): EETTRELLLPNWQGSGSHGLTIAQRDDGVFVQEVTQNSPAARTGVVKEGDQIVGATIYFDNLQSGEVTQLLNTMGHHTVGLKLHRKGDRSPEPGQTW
Sequence of PARD3_3, Q8TEW0 (Q8TEW0 582-685): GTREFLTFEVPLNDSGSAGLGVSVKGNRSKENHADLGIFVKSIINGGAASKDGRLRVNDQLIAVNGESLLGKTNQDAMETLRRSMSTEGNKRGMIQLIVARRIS
Sequence of DLG4_3, P78352 (P78352 306-403): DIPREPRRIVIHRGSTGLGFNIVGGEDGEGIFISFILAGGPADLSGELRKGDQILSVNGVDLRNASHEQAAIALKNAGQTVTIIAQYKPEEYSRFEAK
Sequence of NHERF4_2, Q86UT5 (Q86UT5 220-308): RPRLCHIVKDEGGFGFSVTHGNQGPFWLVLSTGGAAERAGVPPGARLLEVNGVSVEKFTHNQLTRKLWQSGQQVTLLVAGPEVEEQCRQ
Sequence of Inadl_10, Q8NI35 (Q8NI35 1673-1763): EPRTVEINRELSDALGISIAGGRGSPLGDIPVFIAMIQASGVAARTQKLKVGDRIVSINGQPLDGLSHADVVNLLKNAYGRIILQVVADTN
Sequence of DLG1_2, Q12959 (Q12959 314-412): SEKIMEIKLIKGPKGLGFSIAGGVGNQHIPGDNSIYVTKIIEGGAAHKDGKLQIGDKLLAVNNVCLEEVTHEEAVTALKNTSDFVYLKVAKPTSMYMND
Sequence of ARHGEF12, Q9NZN5-2 (Q9NZN5 other isoform, or with tags, fused parts or gaps): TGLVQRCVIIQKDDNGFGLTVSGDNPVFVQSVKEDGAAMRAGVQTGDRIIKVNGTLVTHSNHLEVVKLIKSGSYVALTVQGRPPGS
Sequence of SCRIB_3, Q14160 (Q14160 999-1103): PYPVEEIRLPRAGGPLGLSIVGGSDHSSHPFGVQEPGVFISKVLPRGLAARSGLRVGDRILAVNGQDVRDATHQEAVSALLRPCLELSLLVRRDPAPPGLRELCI
Sequence of MAGI2_5, Q86UL8 (Q86UL8 915-1017): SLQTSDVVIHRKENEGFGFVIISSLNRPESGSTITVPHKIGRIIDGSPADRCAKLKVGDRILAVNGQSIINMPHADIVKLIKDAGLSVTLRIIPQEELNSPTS

Binder | pKd (AHNAK1, Q09666) | pKd (APBA2_1, Q99767) | pKd (ARHGEF12, Q9NZN5-2) | pKd (DFNB31_1, Q9P202) | pKd (DLG1_2, Q12959) | pKd (DLG2_3, Q15700) | pKd (DLG4_3, P78352) | pKd (DVL3, Q92997) | pKd (GRIP1_2, Q9Y3R0) | pKd (GRIP1_3, Q9Y3R0) | pKd (Inadl_10, Q8NI35) | pKd (Inadl_4, Q8NI35) | pKd (LRRC7, Q96NW7) | pKd (MAGI2_3, Q86UL8) | pKd (MAGI2_5, Q86UL8) | pKd (MPDZ_12, O75970) | pKd (NHERF4_2, Q86UT5) | pKd (PARD3_3, Q8TEW0) | pKd (PDZRN3_1, Q9UPQ7) | pKd (RADIL, Q96JH8) | other results
FLVTEFNVML [DFNB31, Q9P202] | below the threshold | below the threshold | below the threshold | below the threshold | below the threshold | below the threshold | below the threshold | 3.66 | below the threshold | below the threshold | below the threshold | below the threshold | 3.64 | below the threshold | below the threshold | below the threshold | below the threshold | 4.49 | below the threshold | 4.78 | pKd (RHPN1, Q8TCX5): below the threshold; pKd (SCRIB_1, Q14160): 3.86; pKd (SCRIB_3, Q14160): 4.12; pKd (SNTB1, Q13884): below the threshold; pKd (SNTG2, Q9NY99): below the threshold
QQGLLPHSSC [TYRO3, Q06418] | below the threshold | below the threshold | 4.18 | below the threshold | below the threshold | below the threshold | below the threshold | below the threshold | below the threshold | below the threshold | below the threshold | below the threshold | below the threshold | below the threshold | below the threshold | 3.6 | below the threshold | below the threshold | below the threshold | below the threshold | pKd (RHPN1, Q8TCX5): below the threshold; pKd (SCRIB_1, Q14160): below the threshold; pKd (SCRIB_3, Q14160): below the threshold; pKd (SNTB1, Q13884): below the threshold; pKd (SNTG2, Q9NY99): below the threshold

The next lines start with results.

pKd (AHNAK1, Q09666) | pKd (APBA2_1, Q99767) | pKd (ARHGEF12, Q9NZN5-2) | pKd (DFNB31_1, Q9P202) | pKd (DLG1_2, Q12959) | pKd (DLG2_3, Q15700) | pKd (DLG4_3, P78352) | pKd (DVL3, Q92997) | pKd (GRIP1_2, Q9Y3R0) | pKd (GRIP1_3, Q9Y3R0) | pKd (Inadl_10, Q8NI35) | pKd (Inadl_4, Q8NI35) | pKd (LRRC7, Q96NW7) | pKd (MAGI2_3, Q86UL8) | pKd (MAGI2_5, Q86UL8) | pKd (MPDZ_12, O75970) | pKd (NHERF4_2, Q86UT5) | pKd (PARD3_3, Q8TEW0) | pKd (PDZRN3_1, Q9UPQ7) | pKd (RADIL, Q96JH8) | Binder | other results
below the threshold | 3.54 | 5.17 | 3.98 | below the threshold | below the threshold | below the threshold | below the threshold | below the threshold | below the threshold | below the threshold | below the threshold | below the threshold | below the threshold | 4.45 | below the threshold | below the threshold | below the threshold | 4.24 | below the threshold | EAVTVESTSL [SLC22A11, Q9NSA0] | pKd (RHPN1, Q8TCX5): 4.86; pKd (SCRIB_1, Q14160): 4.56; pKd (SCRIB_3, Q14160): 4.75; pKd (SNTB1, Q13884): 3.94; pKd (SNTG2, Q9NY99): 3.64
below the threshold | below the threshold | 4.21 | below the threshold | 4.64 | 3.83 | below the threshold | below the threshold | below the threshold | below the threshold | below the threshold | below the threshold | below the threshold | 3.51 | 3.64 | below the threshold | below the threshold | below the threshold | below the threshold | 4.3 | PEKVSNTTVV [IGSF5, Q9NSI5] | pKd (RHPN1, Q8TCX5): 3.67; pKd (SCRIB_1, Q14160): 3.56; pKd (SCRIB_3, Q14160): below the threshold; pKd (SNTB1, Q13884): 3.93; pKd (SNTG2, Q9NY99): 3.76
below the threshold | below the threshold | below the threshold | below the threshold | below the threshold | 3.82 | below the threshold | 3.66 | below the threshold | below the threshold | below the threshold | below the threshold | below the threshold | below the threshold | below the threshold | 3.62 | below the threshold | below the threshold | below the threshold | below the threshold | AHGSTRDQSI [KCNB1, Q14721] | pKd (RHPN1, Q8TCX5): below the threshold; pKd (SCRIB_1, Q14160): below the threshold; pKd (SCRIB_3, Q14160): below the threshold; pKd (SNTB1, Q13884): below the threshold; pKd (SNTG2, Q9NY99): below the threshold
below the threshold | below the threshold | 3.65 | below the threshold | below the threshold | below the threshold | 3.5 | below the threshold | below the threshold | below the threshold | below the threshold | below the threshold | below the threshold | below the threshold | below the threshold | below the threshold | below the threshold | below the threshold | below the threshold | below the threshold | KSRPENGTVC [TMEM178B, H3BS89] | pKd (RHPN1, Q8TCX5): below the threshold; pKd (SCRIB_1, Q14160): 3.78; pKd (SCRIB_3, Q14160): 3.66; pKd (SNTB1, Q13884): 3.56; pKd (SNTG2, Q9NY99): below the threshold
